We go through two substances from PMC7881195.

The target in assay [1] is C. elegans PGL-1 N-terminal dimerization domain (NtDD), wild-type (C. elegans). In words: SEC-MALS; C. elegans PGL-1 NtDD wild-type and mutants injected at 1 mg/ml in HNT buffer (20 mM HEPES pH 7.4, 100 mM NaCl, 0.5 mM TCEP) on a SEC 650 sizing column, 0.4 ml/min.
Assay [2] concerns the target C. elegans PGL-3 N-terminal dimerization domain (NtDD), wild-type (C. elegans). Description: SEC-MALS; C. elegans PGL-3 NtDD wild-type and mutant, 500 µl at 1 mg/ml in HNT buffer (20 mM HEPES pH 7.5, 100 mM NaCl, 0.5 mM TCEP) on Superdex 75 10/300 GL, 0.5 ml/min, 20 °C.

For “C. elegans PGL-1 N-terminal dimerization domain (NtDD), wild-type (domain or fragment)”, in assay [1], the stoichiometry N amounted to 2.

“C. elegans PGL-3 N-terminal dimerization domain (NtDD), wild-type (domain or fragment)”: in assay [2], the stoichiometry N turned out to be 2.
